Source: paper PMC3374832, “The Structure of the Oligomerization Domain of Lsr2 from Mycobacterium tuberculosis Reveals a Mechanism for Chromosome Organization and Protection” (PLoS ONE, 2012)

Target: the molecule itself
Experiment: SDS-PAGE

B1: full-length Lsr2 from Mycobacterium tuberculosis (natural protein)
chain: not shown
notes: Lsr2 (Rv3597c) of Mycobacterium tuberculosis H37Rv, full length; also called Rv3597c
binding result: binds
